This note sets out measurements from paper PMC5877952 (Proceedings of the National Academy of Sciences of the …, 2018).

The target of this assay is T1, SAX-3–Flag (C. elegans, UniProt G5EBF1 24-1273).
T1 sequence (looked up): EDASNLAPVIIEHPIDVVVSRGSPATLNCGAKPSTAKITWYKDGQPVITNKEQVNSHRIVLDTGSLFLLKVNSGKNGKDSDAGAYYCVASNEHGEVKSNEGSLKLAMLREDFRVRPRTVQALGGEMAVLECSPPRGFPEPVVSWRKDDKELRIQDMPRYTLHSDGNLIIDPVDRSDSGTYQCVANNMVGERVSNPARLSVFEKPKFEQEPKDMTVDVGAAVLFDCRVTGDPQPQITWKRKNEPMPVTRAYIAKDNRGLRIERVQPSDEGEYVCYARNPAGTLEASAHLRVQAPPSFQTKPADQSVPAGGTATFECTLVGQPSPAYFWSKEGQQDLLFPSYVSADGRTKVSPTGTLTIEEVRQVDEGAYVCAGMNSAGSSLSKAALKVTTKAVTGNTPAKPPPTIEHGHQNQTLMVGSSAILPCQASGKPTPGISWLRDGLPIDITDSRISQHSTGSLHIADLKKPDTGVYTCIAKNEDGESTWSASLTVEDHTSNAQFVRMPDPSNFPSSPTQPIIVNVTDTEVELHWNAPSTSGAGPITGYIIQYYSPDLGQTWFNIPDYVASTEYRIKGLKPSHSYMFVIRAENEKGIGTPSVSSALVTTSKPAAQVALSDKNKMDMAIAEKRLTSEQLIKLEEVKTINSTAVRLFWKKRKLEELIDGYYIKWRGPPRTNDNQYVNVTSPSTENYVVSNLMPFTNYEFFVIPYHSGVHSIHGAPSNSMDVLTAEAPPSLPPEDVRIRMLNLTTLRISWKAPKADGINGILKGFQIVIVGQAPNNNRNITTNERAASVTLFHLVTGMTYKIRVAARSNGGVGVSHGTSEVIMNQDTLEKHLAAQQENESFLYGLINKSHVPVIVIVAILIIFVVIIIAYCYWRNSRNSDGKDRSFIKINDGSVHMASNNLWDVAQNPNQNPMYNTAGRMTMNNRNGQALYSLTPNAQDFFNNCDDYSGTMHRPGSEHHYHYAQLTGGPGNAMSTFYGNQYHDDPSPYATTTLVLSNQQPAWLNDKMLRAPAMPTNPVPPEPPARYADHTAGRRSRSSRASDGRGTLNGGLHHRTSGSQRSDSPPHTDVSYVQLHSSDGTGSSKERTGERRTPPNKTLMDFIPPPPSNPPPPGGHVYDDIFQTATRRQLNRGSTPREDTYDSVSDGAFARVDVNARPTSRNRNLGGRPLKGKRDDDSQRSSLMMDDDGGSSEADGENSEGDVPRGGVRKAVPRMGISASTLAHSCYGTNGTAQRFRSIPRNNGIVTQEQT
Briefly: pull-down.

B1: CWN-2–GST (ligand, C. elegans, UniProt P34889 38-360, looked up)
chain: AGHNVKPVCELPGLSPGQAQVCELFKDHMPAVSIGAQNAIQECQRQFTGHRWNCSTHYSTGMLGPIHKMATREAAFTYAILSAGVTHEIGRRCKQGLLTSCGCSDETKPKNVPTDWSWGGCGDNVEYGYKFSRDFIDIREKEHDPKRNHDNGRSLMNRRNNEAGRKILKRHRKPKCKCHGVSGACNMKTCWMQLPSMEQVGKILRNKYDKAIRVQINDRGNLQLLADEATKERKTRALPTDLVFMDDSPDYCRFDRHSGTLGTEGRVCKRGSGGAEGCDSLCCGRGYNTYTQEVKSKCNCKFEWCCKVVCQTCNNVTQVDICK
For B1, the binding result is recorded as “binds”.
